Source: patent US20170204176A1 (MacroGenics, published 2017)

Assays:
histidine tagged TRAIL [1] = biological target: T1, histidine tagged TRAIL (UniProt P50591 95-281, limits assumed); test: ELISA; biotinylated DR5 mAb 2 on 1 µg/mL TRAIL-His coat
T1 construct: also called TRAIL-His; TRAIL ligand; not shown: histidine tag

human DR5 = human DR5 (human, UniProt O14763 56-210, limits assumed); test: titration with fluorescence readout (y axis: Log MFI); the text does not describe the assay format
histidine tagged TRAIL [2] = biological target: T1, histidine tagged TRAIL; test: ELISA; biotinylated DR5 mAb 1 on 1 µg/mL TRAIL-His coat
[3] = biological target: T2, His-tagged cynomolgus monkey DR5 (cynomolgus monkey (Macaca fascicularis)); test: Biacore (SPR); DR5 mAb 3×CD3 mAb 2 diabody with His-tagged cynomolgus monkey DR5
T2 construct: also called His-tagged DR5
Experimental: (§1) Bi-specific DR5×CD3 diabodies were incubated with His-tagged DR5 and the kinetics of binding was determined via Biacore analysis.

[4] = biological target: T2, His-tagged cynomolgus monkey DR5; test: Biacore (SPR); DR5 mAb 2×CD3 mAb 2 diabody with His-tagged cynomolgus monkey DR5
Experimental: as §1

[5] = biological target: T2, His-tagged cynomolgus monkey DR5; test: Biacore (SPR); DR5 mAb 4×CD3 mAb 2 diabody with His-tagged cynomolgus monkey DR5
Experimental: as §1

Chain of human DR5 (O14763 other isoform, or with tags, fused parts or gaps limits assumed): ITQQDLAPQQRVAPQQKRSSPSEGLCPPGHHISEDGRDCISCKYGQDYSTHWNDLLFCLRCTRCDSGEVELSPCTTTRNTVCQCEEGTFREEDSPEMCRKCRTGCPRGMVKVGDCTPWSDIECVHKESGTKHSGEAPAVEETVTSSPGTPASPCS

B1: DR5 mAb 2 (antibody, V domains shown)
VH: KVQLQQSGAELVKPGASVKLSCKASGYTFTEYILHWVKQKSGQGLEWIGWFYPGNNNIKYNEKFKDKATLTADKSSSTVYMELSRLTSEDSAVYFCARHEQGPGYFDYWGQGTTLTVSS
VL: DIVMTQSHKFMSTSVGDRVSITCKASQDVNTAVAWYQQKPGQSPKLLIYWASTRHTGVPDRFTGSGSGTDYTLTIKSVQAEDLTLYYCQQHYITPWTFGGGTKLEIK
notes: Murine anti-human DR5 monoclonal antibody; also called anti-human DR5 monoclonal antibody DR5 mAb 2; DR mAb 2
- binding result (histidine tagged TRAIL [1]): no binding (tested: 2 µg/mL)

B2: DR5 mAb 1 (antibody, V domains shown)
VH: EVKFLESGGGLVQPGGSLKLSCVASGFDFSRYWMSWVRQAPGKGLEWIGEINPDSNTINYTPSLKDKFIISRDNAKNTLYLQMTKVRSEDTALYYCTRRAYYGNPAWFAYWGQGTLVTVSS
VL: DIVLTQSPASLAVSLGQRATISCRASKSVSSSGYSYMHWYQQKPGQPPKVLIFLSSNLDSGVPARFSGSGSGTDFTLNIHPVEDGDAATYYCQHSRDLPPTFGGGTKLEIK
notes: Murine anti-human DR5 monoclonal antibody; also called anti-human DR5 monoclonal antibody DR5 mAb 1
- EC50 (read off the curve) (human DR5): ~1 nM
- binding result (histidine tagged TRAIL [2]): no binding (tested: 2 µg/mL)

B3: DR5 mAb 3×CD3 mAb 2 diabody (bispecific antibody)
chain 1: SELTQDPAVSVALGQTVRITCSGDSLRSYYASWYQQKPGQAPVLVIYGANNRPSGIPDRFSGSSSGNTASLTITGAQAEDEADYYCNSADSSGNHVVFGGGTKLTVLGGGGSGGGGEVQLVESGGGLVQPGGSLRLSCAASGFTFSTYAMNWVRQAPGKGLEWVGRIRSKYNNYATYYADSVKGRFTISRDDSKNSLYLQMNSLKTEDTAVYYCVRHGNFGNSYVSWFAYWGQGTLVTVSSASTKGEVAACEKEVAALEKEVAALEKEVAALEK
chain 2: QAVVTQEPSLTVSPGGTVTLTCRSSTGAVTTSNYANWVQQKPGQAPRGLIGGTNKRAPWTPARFSGSLLGGKAALTITGAQAEDEADYYCALWYSNLWVFGGGTKLTVLGGGGSGGGGEVQLVQSGGGVERPGGSLRLSCAASGFTFDDYAMSWVRQAPGKGLEWVSGINWQGGSTGYADSVKGRVTISRDNAKNSLYLQMNSLRAEDTAVYYCAKILGAGRGWYFDYWGKGTTVTVSSASTKGKVAACKEKVAALKEKVAALKEKVAALKE
notes: Two-chain bi-specific DR5×CD3 diabody with the VL and VH of drozitumab (DR5 mAb 3); also called drozitumab variable domains
- Kd [3]: 13.3 nM

B4: DR5 mAb 2×CD3 mAb 2 diabody (bispecific antibody)
chain 1: DIVMTQSHKFMSTSVGDRVSITCKASQDVNTAVAWYQQKPGQSPKLLIYWASTRHTGVPDRFTGSGSGTDYTLTIKSVQAEDLTLYYCQQHYITPWTFGGGTKLEIKGGGSGGGGEVQLVESGGGLVQPGGSLRLSCAASGFTFSTYAMNWVRQAPGKGLEWVGRIRSKYNNYATYYADSVKGRFTISRDDSKNSLYLQMNSLKTEDTAVYYCVRHGNFGNSYVSWFAYWGQGTLVTVSSASTKGEVAACEKEVAALEKEVAALEKEVAALEK
chain 2: QAVVTQEPSLTVSPGGTVTLTCRSSTGAVTTSNYANWVQQKPGQAPRGLIGGTNKRAPWTPARFSGSLLGGKAALTITGAQAEDEADYYCALWYSNLWVFGGGTKLTVLGGGGSGGGGKVQLQQSGAELVKPGASVKLSCKASGYTFTEYILHWVKQKSGQGLEWIGWFYPGNNNIKYNEKFKDKATLTADKSSSTVYMELSRLTSEDSAVYFCARHEQGPGYFDYWGQGTTLTVSSASTKGKVAACKEKVAALKEKVAALKEKVAALKE
notes: Two-chain bi-specific DR5×CD3 diabody
- Kd [4]: 0.42 nM

B5: DR5 mAb 4×CD3 mAb 2 diabody (bispecific antibody)
chain 1: EIVLTQSPGTLSLSPGERATLSCRASQGISRSYLAWYQQKPGQAPSLLIYGASSRATGIPDRFSGSGSGTDFTLTISRLEPEDFAVYYCQQFGSSPWTFGQGTKVEIKGGGSGGGGEVQLVESGGGLVQPGGSLRLSCAASGFTFSTYAMNWVRQAPGKGLEWVGRIRSKYNNYATYYADSVKGRFTISRDDSKNSLYLQMNSLKTEDTAVYYCVRHGNFGNSYVSWFAYWGQGTLVTVSSASTKGEVAACEKEVAALEKEVAALEKEVAALEK
chain 2: QAVVTQEPSLTVSPGGTVTLTCRSSTGAVTTSNYANWVQQKPGQAPRGLIGGTNKRAPWTPARFSGSLLGGKAALTITGAQAEDEADYYCALWYSNLWVFGGGTKLTVLGGGGSGGGGQVQLQESGPGLVKPSQTLSLTCTVSGGSISSGDYFWSWIRQLPGKGLEWIGHIHNSGTTYYNPSLKSRVTISVDTSKKQFSLRLSSVTAADTAVYYCARDRGGDYYYGMDVWGQGTTVTVSSASTKGKVAACKEKVAALKEKVAALKEKVAALKE
notes: Two-chain bi-specific DR5×CD3 diabody with the VL and VH of conatumumab (DR5 mAb 4); also called conatumumab variable domains
- Kd [5]: 16.4 nM
